Experimental findings from paper PMC7368063, “An FGF15/19-TFEB regulatory loop controls hepatic cholesterol and bile acid homeostasis” are described below.

The target in this data set is TFEB (rhTFEB) (human, UniProt P19484 1-476). The experiment in a line: EMSA; EMSA kit with SYBR green (Thermo Fisher), 5 pmol annealed probe, 200 ng rhTFEB; buffer, salt, pH and temperature not stated. The conditions noted are these: protein: commercial; chain copies: 2. In general terms: In EMSA bound probe runs differently from free probe, usually more slowly.
TFEB (rhTFEB), sequence (P19484 whole entry): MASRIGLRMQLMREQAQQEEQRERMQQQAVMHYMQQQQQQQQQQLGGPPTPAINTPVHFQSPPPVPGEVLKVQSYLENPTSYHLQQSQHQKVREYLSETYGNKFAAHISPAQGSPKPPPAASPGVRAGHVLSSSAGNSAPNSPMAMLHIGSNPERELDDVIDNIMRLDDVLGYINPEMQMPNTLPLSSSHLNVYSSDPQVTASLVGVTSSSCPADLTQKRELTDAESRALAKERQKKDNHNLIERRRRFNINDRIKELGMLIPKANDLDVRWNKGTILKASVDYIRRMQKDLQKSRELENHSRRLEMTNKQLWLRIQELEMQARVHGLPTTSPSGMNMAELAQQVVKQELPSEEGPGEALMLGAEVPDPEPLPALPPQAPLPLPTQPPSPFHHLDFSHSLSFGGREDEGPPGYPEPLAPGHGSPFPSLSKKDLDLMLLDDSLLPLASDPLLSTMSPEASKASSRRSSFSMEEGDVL

B1: NPC2 CLEAR probe (positive control) (dsDNA)
DNA 1: GCGCGGGCGGGCCTCAGCTGTGGTTACTGGTGACAGGTCGCCTGA
DNA 2: TCAGGCGACCTGTCACCAGTAACCACAGCTGAGGCCCGCCCGCGC
Regarding B1, the binding result is listed as “binds”.
